Measurements from the supplement of paper PMC10266784.

B1: library; numbered along this chain (parent)
chain: MAAAAAAAAEQQSSNGPVKKSMREKAVERRSVNKEHNSNFKAGYIPIDEDRLHKTGLRGRKGNLAICVIILLFILAVINLIITLVIWAVIRIGPNGCDSMEFHESGLLRFKQVSDMGVIHPLYKSTVGGRRNENLVITGNNQPIVFQQGTTKLSVENNKTSITSDIGMQFFDPRTQNILFSTDYETHEFHLPSGVKSLNVQKASTERITSNATSDLNIKVDGRAIVRGNEGVFIMGKTIEFHMGGNMELKAENSIILNGSVMVSTTRLPSSSSGDQLGSGDWVRYKLCMCADGTLFKVQVTSQNMGCQISDNPCGNTH

Variants of: B1
Experiment: SGCB cell-surface expression functional score (HA stain, bin4 vs bin1, normalised to synonymous) (log10 ratio); higher = more cell-surface SGCB (functional)
Procedure, shortened: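 Codon-saturation libraries of HA-tagged, YFP-fused human beta-sarcoglycan were lentivirally transduced at MOI <0.1 into HEK293 cells stably expressing alpha-, gamma- and delta-sarcoglycan. YFP-positive cells were sorted after 72 hours, grown 5–7 days, stained on ice with Alexa Fluor 647 anti-HA, fixed, sorted into four 5% intensity bins and amplicon-sequenced. The functional score is the log ratio of highest-bin to lowest-bin variant frequency, taken as the median over codons and duplicate transductions. Synonymous variants were scaled per section to mean 0, SD 0.5.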

Variant	SGCB cell-surface expression functional score (log10)
MAAAAAAAAEQQSSNGPVKKSMREKAVERRSVNKEHNSNFKAGYIPIDEDRLHKTGLRGRKGNLAICVIILLFILAVINLIITLVIWAVIRIGPNGCDSMEFHESGLLRKKQVSDMGVIHPLYKSTVGGRRNENLVITGNNQPIVFQQGTTKLSVENNKTSITSDIGMQFFDPRTQNILFSTDYETHEFHLPSGVKSLNVQKASTERITSNATSDLNIKVDGRAIVRGNEGVFIMGKTIEFHMGGNMELKAENSIILNGSVMVSTTRLPSSSSGDQLGSGDWVRYKLCMCADGTLFKVQVTSQNMGCQISDNPCGNTH [F110K]	-0.57
MAAAAAAAAEQQSSNGPVKKSMREKAVERRSVNKEHNSNFKAGYIPIDEDRLHKTGLRGRKGNLAICVIILLFILAVINLIITLVIWAVIRIGPNGCDSMEFHESGLLRDKQVSDMGVIHPLYKSTVGGRRNENLVITGNNQPIVFQQGTTKLSVENNKTSITSDIGMQFFDPRTQNILFSTDYETHEFHLPSGVKSLNVQKASTERITSNATSDLNIKVDGRAIVRGNEGVFIMGKTIEFHMGGNMELKAENSIILNGSVMVSTTRLPSSSSGDQLGSGDWVRYKLCMCADGTLFKVQVTSQNMGCQISDNPCGNTH [F110D]	-1.65
MAAAAAAAAEQQSSNGPVKKSMREKAVERRSVNKEHNSNFKAGYIPIDEDRLHKTGLRGRKGNLAICVIILLFILAVINLIITLVIWAVIRIGPNGCDSMEFHESGLLRIKQVSDMGVIHPLYKSTVGGRRNENLVITGNNQPIVFQQGTTKLSVENNKTSITSDIGMQFFDPRTQNILFSTDYETHEFHLPSGVKSLNVQKASTERITSNATSDLNIKVDGRAIVRGNEGVFIMGKTIEFHMGGNMELKAENSIILNGSVMVSTTRLPSSSSGDQLGSGDWVRYKLCMCADGTLFKVQVTSQNMGCQISDNPCGNTH [F110I]	-0.31
MAAAAAAAAEQQSSNGPVKKSMREKAVERRSVNKEHNSNFKAGYIPIDEDRLHKTGLRGRKGNLAICVIILLFILAVINLIITLVIWAVIRIGPNGCDSMEFHESGLLRGKQVSDMGVIHPLYKSTVGGRRNENLVITGNNQPIVFQQGTTKLSVENNKTSITSDIGMQFFDPRTQNILFSTDYETHEFHLPSGVKSLNVQKASTERITSNATSDLNIKVDGRAIVRGNEGVFIMGKTIEFHMGGNMELKAENSIILNGSVMVSTTRLPSSSSGDQLGSGDWVRYKLCMCADGTLFKVQVTSQNMGCQISDNPCGNTH [F110G]	-1.18
MAAAAAAAAEQQSSNGPVKKSMREKAVERRSVNKEHNSNFKAGYIPIDEDRLHKTGLRGRKGNLAICVIILLFILAVINLIITLVIWAVIRIGPNGCDSMEFHESGLLRHKQVSDMGVIHPLYKSTVGGRRNENLVITGNNQPIVFQQGTTKLSVENNKTSITSDIGMQFFDPRTQNILFSTDYETHEFHLPSGVKSLNVQKASTERITSNATSDLNIKVDGRAIVRGNEGVFIMGKTIEFHMGGNMELKAENSIILNGSVMVSTTRLPSSSSGDQLGSGDWVRYKLCMCADGTLFKVQVTSQNMGCQISDNPCGNTH [F110H]	-0.19
MAAAAAAAAEQQSSNGPVKKSMREKAVERRSVNKEHNSNFKAGYIPIDEDRLHKTGLRGRKGNLAICVIILLFILAVINLIITLVIWAVIRIGPNGCDSMEFHESGLLREKQVSDMGVIHPLYKSTVGGRRNENLVITGNNQPIVFQQGTTKLSVENNKTSITSDIGMQFFDPRTQNILFSTDYETHEFHLPSGVKSLNVQKASTERITSNATSDLNIKVDGRAIVRGNEGVFIMGKTIEFHMGGNMELKAENSIILNGSVMVSTTRLPSSSSGDQLGSGDWVRYKLCMCADGTLFKVQVTSQNMGCQISDNPCGNTH [F110E]	-1.42
MAAAAAAAAEQQSSNGPVKKSMREKAVERRSVNKEHNSNFKAGYIPIDEDRLHKTGLRGRKGNLAICVIILLFILAVINLIITLVIWAVIRIGPNGCDSMEFHESGLLRAKQVSDMGVIHPLYKSTVGGRRNENLVITGNNQPIVFQQGTTKLSVENNKTSITSDIGMQFFDPRTQNILFSTDYETHEFHLPSGVKSLNVQKASTERITSNATSDLNIKVDGRAIVRGNEGVFIMGKTIEFHMGGNMELKAENSIILNGSVMVSTTRLPSSSSGDQLGSGDWVRYKLCMCADGTLFKVQVTSQNMGCQISDNPCGNTH [F110A]	-1.33
MAAAAAAAAEQQSSNGPVKKSMREKAVERRSVNKEHNSNFKAGYIPIDEDRLHKTGLRGRKGNLAICVIILLFILAVINLIITLVIWAVIRIGPNGCDSMEFHESGLLRCKQVSDMGVIHPLYKSTVGGRRNENLVITGNNQPIVFQQGTTKLSVENNKTSITSDIGMQFFDPRTQNILFSTDYETHEFHLPSGVKSLNVQKASTERITSNATSDLNIKVDGRAIVRGNEGVFIMGKTIEFHMGGNMELKAENSIILNGSVMVSTTRLPSSSSGDQLGSGDWVRYKLCMCADGTLFKVQVTSQNMGCQISDNPCGNTH [F110C]	-1.22
MAAAAAAAAEQQSSNGPVKKSMREKAVERRSVNKEHNSNFKAGYIPIDEDRLHKTGLRGRKGNLAICVIILLFILAVINLIITLVIWAVIRIGPNGCDSMEFHESGLLKFKQVSDMGVIHPLYKSTVGGRRNENLVITGNNQPIVFQQGTTKLSVENNKTSITSDIGMQFFDPRTQNILFSTDYETHEFHLPSGVKSLNVQKASTERITSNATSDLNIKVDGRAIVRGNEGVFIMGKTIEFHMGGNMELKAENSIILNGSVMVSTTRLPSSSSGDQLGSGDWVRYKLCMCADGTLFKVQVTSQNMGCQISDNPCGNTH [R109K]	-0.59
MAAAAAAAAEQQSSNGPVKKSMREKAVERRSVNKEHNSNFKAGYIPIDEDRLHKTGLRGRKGNLAICVIILLFILAVINLIITLVIWAVIRIGPNGCDSMEFHESGLLPFKQVSDMGVIHPLYKSTVGGRRNENLVITGNNQPIVFQQGTTKLSVENNKTSITSDIGMQFFDPRTQNILFSTDYETHEFHLPSGVKSLNVQKASTERITSNATSDLNIKVDGRAIVRGNEGVFIMGKTIEFHMGGNMELKAENSIILNGSVMVSTTRLPSSSSGDQLGSGDWVRYKLCMCADGTLFKVQVTSQNMGCQISDNPCGNTH [R109P]	-1.41
MAAAAAAAAEQQSSNGPVKKSMREKAVERRSVNKEHNSNFKAGYIPIDEDRLHKTGLRGRKGNLAICVIILLFILAVINLIITLVIWAVIRIGPNGCDSMEFHESGLLVFKQVSDMGVIHPLYKSTVGGRRNENLVITGNNQPIVFQQGTTKLSVENNKTSITSDIGMQFFDPRTQNILFSTDYETHEFHLPSGVKSLNVQKASTERITSNATSDLNIKVDGRAIVRGNEGVFIMGKTIEFHMGGNMELKAENSIILNGSVMVSTTRLPSSSSGDQLGSGDWVRYKLCMCADGTLFKVQVTSQNMGCQISDNPCGNTH [R109V]	0.1
MAAAAAAAAEQQSSNGPVKKSMREKAVERRSVNKEHNSNFKAGYIPIDEDRLHKTGLRGRKGNLAICVIILLFILAVINLIITLVIWAVIRIGPNGCDSMEFHESGLLYFKQVSDMGVIHPLYKSTVGGRRNENLVITGNNQPIVFQQGTTKLSVENNKTSITSDIGMQFFDPRTQNILFSTDYETHEFHLPSGVKSLNVQKASTERITSNATSDLNIKVDGRAIVRGNEGVFIMGKTIEFHMGGNMELKAENSIILNGSVMVSTTRLPSSSSGDQLGSGDWVRYKLCMCADGTLFKVQVTSQNMGCQISDNPCGNTH [R109Y]	-0.17
MAAAAAAAAEQQSSNGPVKKSMREKAVERRSVNKEHNSNFKAGYIPIDEDRLHKTGLRGRKGNLAICVIILLFILAVINLIITLVIWAVIRIGPNGCDSMEFHESGLLWFKQVSDMGVIHPLYKSTVGGRRNENLVITGNNQPIVFQQGTTKLSVENNKTSITSDIGMQFFDPRTQNILFSTDYETHEFHLPSGVKSLNVQKASTERITSNATSDLNIKVDGRAIVRGNEGVFIMGKTIEFHMGGNMELKAENSIILNGSVMVSTTRLPSSSSGDQLGSGDWVRYKLCMCADGTLFKVQVTSQNMGCQISDNPCGNTH [R109W]	0.09
MAAAAAAAAEQQSSNGPVKKSMREKAVERRSVNKEHNSNFKAGYIPIDEDRLHKTGLRGRKGNLAICVIILLFILAVINLIITLVIWAVIRIGPNGCDSMEFHESGLLMFKQVSDMGVIHPLYKSTVGGRRNENLVITGNNQPIVFQQGTTKLSVENNKTSITSDIGMQFFDPRTQNILFSTDYETHEFHLPSGVKSLNVQKASTERITSNATSDLNIKVDGRAIVRGNEGVFIMGKTIEFHMGGNMELKAENSIILNGSVMVSTTRLPSSSSGDQLGSGDWVRYKLCMCADGTLFKVQVTSQNMGCQISDNPCGNTH [R109M]	-0.41
MAAAAAAAAEQQSSNGPVKKSMREKAVERRSVNKEHNSNFKAGYIPIDEDRLHKTGLRGRKGNLAICVIILLFILAVINLIITLVIWAVIRIGPNGCDSMEFHESGLLNFKQVSDMGVIHPLYKSTVGGRRNENLVITGNNQPIVFQQGTTKLSVENNKTSITSDIGMQFFDPRTQNILFSTDYETHEFHLPSGVKSLNVQKASTERITSNATSDLNIKVDGRAIVRGNEGVFIMGKTIEFHMGGNMELKAENSIILNGSVMVSTTRLPSSSSGDQLGSGDWVRYKLCMCADGTLFKVQVTSQNMGCQISDNPCGNTH [R109N]	-1.22
MAAAAAAAAEQQSSNGPVKKSMREKAVERRSVNKEHNSNFKAGYIPIDEDRLHKTGLRGRKGNLAICVIILLFILAVINLIITLVIWAVIRIGPNGCDSMEFHESGLLSFKQVSDMGVIHPLYKSTVGGRRNENLVITGNNQPIVFQQGTTKLSVENNKTSITSDIGMQFFDPRTQNILFSTDYETHEFHLPSGVKSLNVQKASTERITSNATSDLNIKVDGRAIVRGNEGVFIMGKTIEFHMGGNMELKAENSIILNGSVMVSTTRLPSSSSGDQLGSGDWVRYKLCMCADGTLFKVQVTSQNMGCQISDNPCGNTH [R109S]	-0.09
MAAAAAAAAEQQSSNGPVKKSMREKAVERRSVNKEHNSNFKAGYIPIDEDRLHKTGLRGRKGNLAICVIILLFILAVINLIITLVIWAVIRIGPNGCDSMEFHESGLLTFKQVSDMGVIHPLYKSTVGGRRNENLVITGNNQPIVFQQGTTKLSVENNKTSITSDIGMQFFDPRTQNILFSTDYETHEFHLPSGVKSLNVQKASTERITSNATSDLNIKVDGRAIVRGNEGVFIMGKTIEFHMGGNMELKAENSIILNGSVMVSTTRLPSSSSGDQLGSGDWVRYKLCMCADGTLFKVQVTSQNMGCQISDNPCGNTH [R109T]	0.26
MAAAAAAAAEQQSSNGPVKKSMREKAVERRSVNKEHNSNFKAGYIPIDEDRLHKTGLRGRKGNLAICVIILLFILAVINLIITLVIWAVIRIGPNGCDSMEFHESGLLQFKQVSDMGVIHPLYKSTVGGRRNENLVITGNNQPIVFQQGTTKLSVENNKTSITSDIGMQFFDPRTQNILFSTDYETHEFHLPSGVKSLNVQKASTERITSNATSDLNIKVDGRAIVRGNEGVFIMGKTIEFHMGGNMELKAENSIILNGSVMVSTTRLPSSSSGDQLGSGDWVRYKLCMCADGTLFKVQVTSQNMGCQISDNPCGNTH [R109Q]	-0.31
MAAAAAAAAEQQSSNGPVKKSMREKAVERRSVNKEHNSNFKAGYIPIDEDRLHKTGLRGRKGNLAICVIILLFILAVINLIITLVIWAVIRIGPNGCDSMEFHESGLLLFKQVSDMGVIHPLYKSTVGGRRNENLVITGNNQPIVFQQGTTKLSVENNKTSITSDIGMQFFDPRTQNILFSTDYETHEFHLPSGVKSLNVQKASTERITSNATSDLNIKVDGRAIVRGNEGVFIMGKTIEFHMGGNMELKAENSIILNGSVMVSTTRLPSSSSGDQLGSGDWVRYKLCMCADGTLFKVQVTSQNMGCQISDNPCGNTH [R109L]	-0.1
